Experimental findings from the supplement of paper PMC12042874 are described below.

± gives the uncertainty stated by the source.

This data set is described as follows: amyloid nucleation score (Sup35N fusion, yeast selection) (log enrichment); library NNK3; higher = more nucleation; inactive = no reads after selection. Summed up:
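After 24 hours of induction with 100 μM copper sulfate, psi-negative yeast expressing peptides of 20 random codons fused to Sup35N were grown for 7 days at 30°C on medium lacking adenine and uracil. Input and output plasmid inserts were sequenced with Illumina, and sequences with under 100 input reads were discarded. Scores for nucleation are the DiMSum log enrichment of output over input reads, centred on the mode score of non-aggregating sequences.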
For the substance AALAY, the amyloid nucleation score entry is “inactive”.

AAPKGGYPVLCCSVRTGRN yielded an amyloid nucleation score of 0.804 ± 0.13.

AASEPGSKRLEAAQWVPVAS: the amyloid nucleation score result is “inactive”.

For the substance AASIFGNSV, the amyloid nucleation score result was “inactive”.

On to AAVWRVVKRNLCHEIGERTA, for which the amyloid nucleation score entry is “inactive”.

Take ACANYCGSFSTTTAEYDVPS: the amyloid nucleation score result was “inactive”.

In the case of ACFLVFGIYQEVMHDCIGRS, the amyloid nucleation score entry was “inactive”.

As to ACGRVNVCYLTPMVRHSGRS, the amyloid nucleation score result was “inactive”.

For ACLLVRYHTDDSNKRCSL, the amyloid nucleation score entry was “inactive”.

Consider ACNSPEVLQNLQRLRSCGRR, for which the amyloid nucleation score entry is “inactive”.

For ACYITTFLGADSVVEYQNDE, the amyloid nucleation score entry is “inactive”.

With ADIGPHRCVLGAMMRWCRQT, the amyloid nucleation score result was “inactive”.

For the substance ADLPCDVATNLVPLTRSSQM, the amyloid nucleation score result was “inactive”.

Consider ADNIGRFVYCYCSVLQTTIS, for which the amyloid nucleation score was determined as 0.401 ± 0.21.

For ADNTDMKMTEVGTHHNGNQN, the amyloid nucleation score entry was “inactive”.

Regarding ADWRIKFYGCGDLGLFWES, the amyloid nucleation score entry is “inactive”.

In turn, ADYLLSYACQSTLSHQKKRP returned an amyloid nucleation score of -0.854 ± 1.7.

Turning to AEGYFRSLSTIRGSLLDLSA, the amyloid nucleation score entry is “inactive”.

For AEHYVRYRRCSATWRICWMY, the amyloid nucleation score result is “inactive”.

For the substance AELSIADPTEMSGRVFACNV, the amyloid nucleation score entry is “inactive”.

As to AEQCEPLWCFWKKRSL, the amyloid nucleation score was 0.792 ± 0.18.

Turning to AETQCSSYDLCDTPSLFDVR, the amyloid nucleation score result was “inactive”.

Regarding AEVPSFECFTVPVFLRSIAV, the amyloid nucleation score result was “inactive”.

Turning to AEYKNGTLRRRTRRVKSRRI, the amyloid nucleation score entry was “inactive”.

AFCLQYVCYAKLMGNVNNTC had an amyloid nucleation score of 1.75 ± 0.084.

As to AFFWCR, the amyloid nucleation score came to 0.314 ± 0.25.

On to AFKMVLIGFMSMVERSNVHG, for which the amyloid nucleation score entry was “inactive”.

In the case of AFLFTLL, the amyloid nucleation score entry is “inactive”.

For AFTRQIIWRDGGERPPWMRV, the amyloid nucleation score result was “inactive”.

As to AFVNLYGKSARQSRQPMA, the amyloid nucleation score entry was “inactive”.

Regarding AGEKPNSIFYSTHSSRSFSN, the amyloid nucleation score was determined as 0.965 ± 0.17.

As to AGGCFISARSIRNCAHMLSR, the amyloid nucleation score result is “inactive”.

On to AGKKLSRITTWSNTLLDPKS, for which the amyloid nucleation score entry was “inactive”.

In turn, AGLSQNRSRIRSY yielded an amyloid nucleation score of -0.2 ± 0.81.

Consider AGNGPLSIYPMILMWMRVGR, for which the amyloid nucleation score entry was “inactive”.

In the case of AGRNMSLCNLHLILLCTSKC, the amyloid nucleation score result is “inactive”.

Turning to AGWNMLVMTLCSTLFSQY, the amyloid nucleation score entry was “inactive”.

Take AHDRIFWNGPYNRISYAAFR: the amyloid nucleation score entry is “inactive”.

Turning to AHRCFFHLSRHVRKYAIRQR, the amyloid nucleation score result is “inactive”.

In turn, AIFFSFYRSFY had an amyloid nucleation score of 1.86 ± 0.053.

In the case of AIFTFVPLSPTRTHGWDHCR, the amyloid nucleation score result is “inactive”.

For AIIDYFMM, the amyloid nucleation score result was “inactive”.

Turning to AIISWQTLMWLYL, the amyloid nucleation score result was “inactive”.

Consider AINDMRPVKSRGGVVELYML, for which the amyloid nucleation score result was “inactive”.

Regarding AISGIPESIVMLSYFRL, the amyloid nucleation score entry was “inactive”.

As for AITHL, the amyloid nucleation score entry is “inactive”.

AIYLSFRGNA displayed an amyloid nucleation score of 1.65 ± 0.071.

For AKATMPIT, the amyloid nucleation score result is “inactive”.

For AKSPL, the amyloid nucleation score is -0.681 ± 0.96.

Take ALCMIYFW: the amyloid nucleation score amounted to 2.79 ± 0.076.

For the substance ALGKRSLLR, the amyloid nucleation score entry is “inactive”.

ALLFLIERALCPSCK: the amyloid nucleation score entry was “inactive”.

ALSMLTG: the amyloid nucleation score result was “inactive”.

Substance ALVAKVVIGSRW gave an amyloid nucleation score of 0.569 ± 0.3.

ALVAPKAGAFMSLKVQLGMP: the amyloid nucleation score is 1.67 ± 0.073.

As for ALWYENDCRWLDEVHRARTG, the amyloid nucleation score result is “inactive”.

In the case of ALYTCMNLSYPLHSEFVTPR, the amyloid nucleation score entry was “inactive”.

For AMNPLRLGLWSYNRLAWNMS, the amyloid nucleation score result was “inactive”.

Take AMVTVELSDNYFWNLHTVAS: the amyloid nucleation score result is “inactive”.

For the substance ANAVLKIFTSVMGSVNS, the amyloid nucleation score entry was “inactive”.

Regarding ANLADKILFFGSPCRVMHPV, the amyloid nucleation score result was “inactive”.

Turning to ANMKINVVLLNDCGWGR, the amyloid nucleation score worked out at 1.5 ± 0.12.

For the substance ANPFFSLDK, the amyloid nucleation score entry is “inactive”.

For ANSNAFIQSDHIRYLLDFAM, the amyloid nucleation score is 0.725 ± 0.18.

Take ANSTAAVKSLGRV: the amyloid nucleation score entry is “inactive”.

As for ANVHNTENLRGLILCRRLLH, the amyloid nucleation score entry is “inactive”.

Regarding APKCNSTMCSCALMTLFLIS, the amyloid nucleation score turned out to be 2.14 ± 0.085.

For APLEFLSSLDWIRPELALTF, the amyloid nucleation score result is “inactive”.

Turning to APPGFFIIVMSCWCYITRAL, the amyloid nucleation score result was “inactive”.

On to APSYISRFVLLTDMPEAQTL, for which the amyloid nucleation score entry is “inactive”.

As for APWYVNWGMYNCEWGRGS, the amyloid nucleation score result is “inactive”.

AQALRSVPEVWGEFTRSS: the amyloid nucleation score result was “inactive”.

Regarding AQEYRMQHRLGGL, the amyloid nucleation score entry was “inactive”.

Consider AQILSYVVSYSDPERHFSVM, for which the amyloid nucleation score result is “inactive”.

On to AQKFSIWLCTTICINTDFDF, for which the amyloid nucleation score was 2.31 ± 0.06.

For the substance ARAYRDQGWPEKEIAQHK, the amyloid nucleation score result is “inactive”.

ARFMC: the amyloid nucleation score entry was “inactive”.

In the case of ARLFKGYSVVLCLCVSHR, the amyloid nucleation score entry was “inactive”.

For the substance ARLHVILCDGCHVRMCPEMG, the amyloid nucleation score entry was “inactive”.

Take ARMVVVLKRFCGVCMMSLFL: the amyloid nucleation score entry was “inactive”.

On to ARRDLFHWCRRQSCVYN, for which the amyloid nucleation score is -0.275 ± 1.1.

For the substance ARYDRS, the amyloid nucleation score entry is “inactive”.

For the substance ASAEEGWQNCEK, the amyloid nucleation score entry was “inactive”.

With ASCSGIC, the amyloid nucleation score is -0.956 ± 2.4.

ASENLAEVLIVT: the amyloid nucleation score result was “inactive”.

Turning to ASQFRCDHCMPRLKGETMET, the amyloid nucleation score entry was “inactive”.

As to ASRIDINRIWFVFWIQAIKS, the amyloid nucleation score result is “inactive”.

As for ASSRSHPV, the amyloid nucleation score result was “inactive”.

ASSSNGIVTFNNPR: the amyloid nucleation score entry is “inactive”.

On to ASTSD, for which the amyloid nucleation score result was “inactive”.

With ASVKGDRDDELSIKYVFGVG, the amyloid nucleation score entry was “inactive”.

In the case of ATCRRFTLVQPSYLVPCEPY, the amyloid nucleation score result is “inactive”.

With ATDNVCVI, the amyloid nucleation score entry was “inactive”.

The substance ATSCILMMDLSRYYVGLYHR had an amyloid nucleation score of 0.88 ± 0.094.

In the case of ATVTWHYAAWTWLGFRPSSL, the amyloid nucleation score entry was “inactive”.

With AVASSRYNLEYLSRSLCVMS, the amyloid nucleation score result is “inactive”.

In the case of AVIWGEAPRIFLTCGALRRE, the amyloid nucleation score result is “inactive”.

Substance AVLGLMLPCFRARRAWIAPP displayed an amyloid nucleation score of -0.22 ± 1.5.

As to AVLHMSCNWDKQFYNLLCFC, the amyloid nucleation score result was “inactive”.

Regarding AVQHIVEFILICQMFTYTHH, the amyloid nucleation score entry is “inactive”.

Substance AVSSSLNWLGFVRISGSRY came in with an amyloid nucleation score of -0.432 ± 1.

Consider AVSTTTSMVINRLRACKYAY, for which the amyloid nucleation score result is “inactive”.

Regarding AVTYNGYDHYYRDVARHCLR, the amyloid nucleation score entry is “inactive”.

In turn, AVVIGDDEVVSDYCLLL had an amyloid nucleation score of 0.377 ± 0.27.

Take AWFTEVYFKPSFRKR: the amyloid nucleation score entry is “inactive”.

On to AWGYYPSLCGKEDVYSWGWG, for which the amyloid nucleation score entry was “inactive”.

AWRAISDKTDGGSYDKSVIV registered an amyloid nucleation score of -0.364 ± 0.8.

For the substance AWRCLGSYCMRLRVSIKSQ, the amyloid nucleation score result was “inactive”.

With AWRRSSEGYRFGNDYVTRAT, the amyloid nucleation score entry was “inactive”.

As for AWSGFE, the amyloid nucleation score stood at 0.01 ± 1.2.

Consider AWVDWKWRNGRSLAS, for which the amyloid nucleation score result was “inactive”.

On to AWWYGLSMYIKKCILGSRFE, for which the amyloid nucleation score entry was “inactive”.

For the substance AYLTI, the amyloid nucleation score entry was “inactive”.

Take AYSDFRLTLSSYIVRANETC: the amyloid nucleation score result was “inactive”.

As for AYSFNSFRASGRHLWFTVCP, the amyloid nucleation score result was “inactive”.

On to AYVRLKRCWDTFWLRI, for which the amyloid nucleation score result is “inactive”.

As to AYVSHINDMPAFGPKSNKPS, the amyloid nucleation score was -0.19 ± 0.81.

AYYNMK yielded an amyloid nucleation score of -0.111 ± 0.21.

For CAKLLYGCDTSFREWMVGAE, the amyloid nucleation score entry was “inactive”.

As for CANANVP, the amyloid nucleation score result is “inactive”.

On to CANNYGGMLRECQVSGYSCM, for which the amyloid nucleation score result is “inactive”.

For the substance CASSNRRESSYVLYSQWDIG, the amyloid nucleation score entry is “inactive”.

The substance CAVFRVSRISINTDAIFITC came in with an amyloid nucleation score of 1.74 ± 0.054.

Consider CCFVRWGFGC, for which the amyloid nucleation score was found to be 1.38 ± 0.091.

Take CCMVVTQYYARMMVWGNRPY: the amyloid nucleation score result is “inactive”.

In the case of CCTIIRAYVVRELAHINNSW, the amyloid nucleation score entry was “inactive”.

For the substance CCVSVKYWYYV, the amyloid nucleation score came out at 2.18 ± 0.058.

With CCYLLHGGRILMIVVMSHHL, the amyloid nucleation score entry was “inactive”.

Consider CDAHSLSMLRVQIK, for which the amyloid nucleation score entry is “inactive”.

In turn, CDHFQWYFLDRCLSVRCMIF gave an amyloid nucleation score of 0.054 ± 0.36.

On to CDRLIVHLFSHLDSGSSVVL, for which the amyloid nucleation score result was “inactive”.
